Measurements reported in US20230192831A1.
Residue numbers refer to the chain shown, from its start.

B1: H4H6260P (antibody, human IgG4, V domains shown)
VH: QVQLVESGGGVVQPGRSLRLSCAASGFTFSTYGMHWVRQAPGKGLEWVAIIWYDGSNYYYADSVKGRFTISRDNSKNTLYLQMNSLRAEDTAVYYCAREDRNDVFDIWGQGTMVTVSS
VL: EIVLTQSPATLSLSPGERATLSCRASQSVSSFLAWYQQKPGQAPRLLIYDSSNRATGIPARFSGSGSGTDFTLTISSLEPEDFAVYYCQQLSNWPPITFGQGTRLEIK
B2: H4H6232P (antibody, human IgG4, V domains shown)
VH: QVQLVQSGAEVKKPGASVKVSCKVSGYTLTELSMHWVRQAPGKGLEWMGGFDPEDGETIYAQKFQGRLTMTEDTSTDTAYMELSSLRSEDTAVYYCATDDYDILTSYPYNMDVWGQGTTVTVSS
VL: DIQMTQSPSSLSASVGDRVTITCRASQSINNYLNWYQQKPGKAPKLLIYAASSLQSGVPSRFSGSGSGTDFTLTISSLQPEDFGTYYCQQSDSTPFTFGPGTKVDIK
B3: H4H6243P (antibody, human IgG4, V domains shown)
VH: B2 VH with G66D, L68V, A97V, D102E, T105P, S106E
VL: B2 VL with N30S, N31T, S76R, G84A, D92H, S93I
B4: H4H6245P (antibody, human IgG4, V domains shown)
VH: EVQLVESGGGLVQPGGSLRLSCAASGFTFNSFWMSWVRQAPGKGLEWVANIKQDGSEKYYVDSVKGRFTISRDNAKNSVYLQMNSLRAEDTAVYYCARDLVTSFDYWGQGTLVTVSS
VL: DIQMTQSPSSLSASVGDRVTITCQASQDINNYLNWYQQKPGKAPKLLIYDASYLETGVPSGFSGSGSGTDFTFTISSLQPEDIATYYCQQYDSLPYTFGQGTKLEIK
B5: H4H6246P (antibody, human IgG4, V domains shown)
VH: QVQLVESGGGVVQPGRSLRLSCAASGFTFSSYGMHWVRQAPGKGLEWVAIIWYDGSNRYYADSVKGRFTISRDNSRNTLYLQMNSLRAEDTAVYYCARDEYGDYDYPFDYWGQGTLVTVSS
VL: DIQMTQSPSSLSASVGDRVTITCRASQGIRNDLGWFQQKPGKAPKRLIYAASSLQSGVPSRFSGSGSGTEFTLTISSLQPEDFATYYCLQHNTYPPFTFGPGTKVDIK
B6: H4H6250P (antibody, human IgG4, V domains shown)
VH: B5 VH with S31N, I50V, R58K, N77K, V93I, A97T, E100D
VL: B5 VL with F36Y, S65T, T93S
B7: H4H6252P (antibody, human IgG4, V domains shown)
VH: B5 VH with S31N, K43R, I50V, Y53F, R58K, R76K, A88S, A97T, E100D
VL: B5 VL with F36Y, H91Y
B8: H4H2926N (antibody, human IgG4, V domains shown)
VH: EVQLVESGGGLVQTGRSLRLSCAASGFTFDDYAMNWVRQAPGKGLEWVSGISWNSGNIGYADSVKGRFTISRDNAKNSLYLQMNSLRAEDTALYYCVKYIGQQLVQDYFDYWGQGTLVTVSS
VL: DIQMTQSPSSLSASVGDRVTITCQASQDITNYLNWYQQRPGKAPKLLIYDAFNLERGVPSRFSGSGYGTYFTFTISSLQPEDIAIYYCQQYDNLPLTFGGGTKVEIE
B9: H4H6240P (antibody, human IgG4, V domains shown)
VH: QVQLVESGGGVVQPGRSLRLSCAASGFTFSSYGMHWVRQAPGKGLEWVAVIWYDGSNKYYADSVKGRFIISRDNSKNMMYLQMNSLRAEDTAVYYCAREDNWNYAFDYWGQGTLVTVSS
VL: EIVMTQSPATLSVSPGERATLSCRASQSISSNLAWYQQKPGQAPRLLIYDSSTRATGIPARFSGSGSGTQFTLTISSLQSEDFALYYCQQYSNWPPFTFGPGTKVDIK
B10: H4H6251P (antibody, human IgG4, V domains shown)
VH: QVQLVESGGGVVQPGKSLRLSCAASGFTFSRYGMHWVRQAPGKGLEWVAVIWYDGSNKYYADSVKGRFTISRDNSKNTLYLQMNSLRADDTAMYYCARDDYGDSPGFDFWGQGTLVTVSS
VL: B9 VL with I29V, S51A, S65T, Q70E, S92D, N93D, F97W, P101Q, D106E
B11: H4H6248P (antibody, human IgG4, V domains shown)
VH: B10 VH with K16R, R31N, A40V, L86V, D89E, M93V, F109Y
VL: B9 VL with I29V, N32S, S51A, Q70E, S77G, L85V, S92N, F97W, P101Q, D106E
B12: H4H2895N (antibody, human IgG4, V domains shown)
VH: EVQLVESGGGLVQPGGSLRLSCAASGFTVSSNYMSWVRQAPGKGLEWVSVIYSGGNTYYADSVKGRFTISRHNSKNTLYLQMNSLRAEDTAVYYCARDLGIKSDYWGQGTLVTVSS
VL: EIVLTQSPDFQSVTPKEKVTITCRASQSIGTTLHWYQQKPDQSPKLLIKYVSQSLSGVPSRFSGSGSGTDFTLTINSLEAEDAATYYCHQSSSLPWTFGQGTKVEIK

Biological target: recombinant human GREM1 (hGREM1-His; C-terminal 10His tagged, R&D, #5190-GR) (human) (UniProt O60565)
Sequence (O60565 other isoform, or with tags, fused parts or gaps limits assumed, form in doubt): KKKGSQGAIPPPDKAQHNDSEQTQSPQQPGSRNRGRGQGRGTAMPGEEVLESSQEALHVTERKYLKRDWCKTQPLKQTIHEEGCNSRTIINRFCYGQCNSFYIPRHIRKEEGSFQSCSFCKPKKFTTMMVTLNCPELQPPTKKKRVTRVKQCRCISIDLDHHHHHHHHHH
Assay: BLI Octet, captured mAb, 100 nM GREM1 without vs with 5 uM heparin

Reduction in Signal from Heparin at 30 sec	Reduction in Signal from Heparin at 300 sec	Binder
0.17 nm	0.05 nm	B1
0.27 nm	0.02 nm	B2
0.3 nm	0.26 nm	B3
0.21 nm	0.19 nm	B4
0.13 nm	0.04 nm	B5
0.14 nm	0.05 nm	B6
0.19 nm	0.09 nm	B7
0.16 nm	0.07 nm	B8
0.18 nm	0.16 nm	B9
0.24 nm	0.09 nm	B10
0.17 nm	0.05 nm	B11
-0.07 nm	-0.04 nm	B12

Biological target: recombinant human GREM1 (hGREM1-His; C-terminal 10His tagged, R&D, #5190-GR) (human) (UniProt O60565)
Assay: BLI Octet, captured mAb, 100 nM GREM1

Binding Signal with 30 sec Association (nm)	Binding Signal with 300 sec Association (nm)	Binder
0.24 nm	0.42 nm	B1
0.33 nm	0.48 nm	B2
0.3 nm	0.47 nm	B3
0.23 nm	0.41 nm	B4
0.19 nm	0.38 nm	B5
0.2 nm	0.37 nm	B6
0.23 nm	0.44 nm	B7
0.23 nm	0.49 nm	B8
0.23 nm	0.53 nm	B9
0.27 nm	0.45 nm	B10
0.21 nm	0.42 nm	B11
0.15 nm	0.5 nm	B12

Biological target: recombinant human GREM1 (hGREM1-His; C-terminal 10His tagged, R&D, #5190-GR) (human) (UniProt O60565)
Assay: cell-based or functional assay

IC50 [M], W-20-17/BRE-luc luciferase bioassay, 100 pM hBMP4 and 10 nM hGREM1-His	hGREM1-His Inhibition IC50, M; W-20-17 cell differentiation assay (alkaline phosphatase)	Binder
4.6e-10 M	3.3 nM	B1
7.8e-10 M	4.5 nM	B2
5.4e-10 M	5.9 nM	B3
5.3e-10 M	6.1 nM	B4
5.6e-10 M	6.2 nM	B5
4.4e-10 M	12 nM	B6
8.2e-10 M	6.1 nM	B7
1.2e-09 M	13 nM	B8
8.1e-10 M	7.8 nM	B9
6.3e-10 M	11 nM	B10
5.3e-10 M	5.6 nM	B11
5.8e-10 M	1.9 nM	B12

Biological target: recombinant human GREM1 (hGREM1-His; C-terminal 10His tagged, R&D, #5190-GR) (human) (UniProt O60565)
Assay: BLI Octet, captured mAb, 100 nM GREM1 + 5 uM heparin

Binding Signal with 30 sec Association (nm)	Binding Signal with 300 sec Association (nm)	Binder
0.07 nm	0.37 nm	B1
0.06 nm	0.46 nm	B2
0 nm	0.21 nm	B3
0.02 nm	0.22 nm	B4
0.06 nm	0.34 nm	B5
0.06 nm	0.32 nm	B6
0.04 nm	0.35 nm	B7
0.07 nm	0.42 nm	B8
0.05 nm	0.37 nm	B9
0.03 nm	0.36 nm	B10
0.04 nm	0.37 nm	B11
0.22 nm	0.54 nm	B12
